# In patent publication US20190269784A1, “Selective Inhibitors of the Polo-Like Kinase 1 Polo-Box Domain” (UNIVERSITY OF SOUTH CAROLINA, priority 2018, published 2019):
# Square brackets hold non-standard residues; d marks the D form. Ends that are not written are not given here. Peptide text beside a SMILES is read from it. * marks the point of attachment. Benzoyl(4-octyl) = CCCCCCCCc1ccc(C(=O)*)cc1; pT = C[C@@H](OP(=O)(O)O)[C@H](N)C(=O)O; X1 = CCCCCCCCCc1ccc(C(=O)*)cc1
# T1: PLK3 PBD (Homo sapiens, UniProt Q9H4B4)
# T1 construct: A similar assay format was developed for the PLK3 PBD
# T1 sequence (Q9H4B4 335-646 limits assumed): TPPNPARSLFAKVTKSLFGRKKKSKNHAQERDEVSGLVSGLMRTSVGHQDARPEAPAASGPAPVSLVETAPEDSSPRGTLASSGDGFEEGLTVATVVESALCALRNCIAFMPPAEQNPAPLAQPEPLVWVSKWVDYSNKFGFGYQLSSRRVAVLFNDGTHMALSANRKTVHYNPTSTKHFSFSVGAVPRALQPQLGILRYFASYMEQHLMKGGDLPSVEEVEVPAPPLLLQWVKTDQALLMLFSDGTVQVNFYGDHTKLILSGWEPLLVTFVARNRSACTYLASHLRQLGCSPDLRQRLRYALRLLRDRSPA
# T2: polo-box domain (PBD) of polo-like kinase 3 (PLK3) (UniProt Q9H4B4 335-646, limits assumed)
# T2 construct: domain: polo-box domain (PBD); also called PLK3 PBD; PBD of PLK3
# T2 sequence (looked up): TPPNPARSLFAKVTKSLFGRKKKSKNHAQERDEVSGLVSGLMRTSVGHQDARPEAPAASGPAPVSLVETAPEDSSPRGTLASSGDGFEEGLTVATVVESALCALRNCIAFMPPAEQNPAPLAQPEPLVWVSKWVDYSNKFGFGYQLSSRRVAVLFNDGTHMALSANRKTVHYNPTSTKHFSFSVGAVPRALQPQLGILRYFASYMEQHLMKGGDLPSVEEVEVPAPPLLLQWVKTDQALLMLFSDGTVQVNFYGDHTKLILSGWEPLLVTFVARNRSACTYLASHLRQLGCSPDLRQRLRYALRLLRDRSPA
# B1: Cdc25C PBD substrate peptide LLCS[pT]PNGL (SEQ ID NO: 1) (peptide)
# peptide: LLCS[pT]PNGL
# notes: also called native Cdc25C peptide
# B2: Compound No. 16, 4-octyl S[pT]PL (SEQ ID NO: 14) (peptide)
# peptide: {Benzoyl(4-octyl)}-S[pT]PL
# B3: Compound No. 17, 4-octyl S[pT]AI (SEQ ID NO: 13), R1 group on the C-terminal (peptide)
# peptide: S[pT]AI
# modifications: also: 4-octyl R1 group on C-terminus, 'C-terminal amidated octyl', terminal chemistry unclear
# B4: Compound No. 18, 4-nonyl S[pT]AI (SEQ ID NO: 13), R1 group on the C-terminal (peptide)
# peptide: S[pT]AI
# modifications: also: 4-nonyl R1 group on C-terminus, 'C-terminal amidated nonyl', terminal chemistry unclear
# B5: PLK3 binding tracer (fluorescein-labelled SEQ ID NO: 7) (peptide)
# peptide: GPLATS[pT]PKNG
# modifications: also: fluorescein-labelled, site not given here
# notes: also called PLK3 tracer; fluorescein-labelled tracer for the PLK3 PBD
# B6: Compound #9, propylamino FLIP (R1 = NCH2CH2CH3) (peptide)
# peptide: {4‑(propylamino)benzoyl}-S[pT]PNGL
# modifications: also: further groups not given here
# notes: see m14; also called Compound No. 9
# Columns and labels:
# [1] = target: polo-box domain (PBD) of polo-like kinase 1 (PLK1) (UniProt P53350); assay: from FP IC50s, (IC50 PLK3 PBD/IC50 PLK1 PBD)x5; PLK1 PBD against PLK3 PBD
# Sequence of polo-box domain (PBD) of polo-like kinase 1 (PLK1) (UniProt P53350) (P53350 367-603 limits assumed): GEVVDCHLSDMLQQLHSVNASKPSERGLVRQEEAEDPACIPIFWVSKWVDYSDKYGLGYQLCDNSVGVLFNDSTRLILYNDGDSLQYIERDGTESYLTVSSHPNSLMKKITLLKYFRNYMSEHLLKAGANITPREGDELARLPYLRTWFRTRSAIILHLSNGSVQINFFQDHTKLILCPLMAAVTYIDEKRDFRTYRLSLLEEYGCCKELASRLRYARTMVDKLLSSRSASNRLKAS
# [2] = target: polo-box domain (PBD) of polo-like kinase 3 (PLK3) (UniProt Q9H4B4); assay: fluorescence polarization competition on PLK3 PBD
# [3] = target: polo-box domain (PBD) of polo-like kinase 1 (PLK1) (UniProt P53350); assay: fluorescence polarization competition on PLK1 PBD
# [4] = tested on: BubR1 phosphorylation in PC-3 cells; assay: Immunoblotting for BubR1 phosphorylation and pHH3 in PC-3 cells; assay type: cell-based; conditions: 5-30 μM, 23 hours
# Experimental: To measure the PLK1 inhibitory activity of the FLIPs in cells, phosphorylation of the mitotic protein BubR1 was measured. PC-3 cells were serum starved for 72 h and released from the G1-S boundary. 16 h after released, cells were arrested at prometaphase by treatment with 100 ng/ml Colcemid or treated with 50 nM BI2536 PLK1 kinase inhibitor or 5-30 μM of Compound No. 18 for 23 hours. Cells were trypsinized and whole cell lysate was prepared. The obtained total cell lysate was subjected to immunoblotting with anti-BubR1 (top panel, FIG. 9), anti-β tubulin (middle panel, FIG. 9), and anti-pHH3 (bottom panel, FIG. 9).
# PLK3 PBD = target: T1, PLK3 PBD; assay: Fluorescence polarization competitive binding assay, PLK3 PBD
# Experimental: (§1) The binding of fluorescein-labelled tracer peptides used for both assays was determined to see if there was a difference in affinity for their respective PBD. A titration curve for each tracer/PLK PBD complex was generated to determine Kd values for each and therefore compare the relative binding affinities.
# (§2) The affinities of the peptides for PLK1 and PLK3 were measured by plotting the loss of polarization against increasing concentration of competitor peptide through use of an optimized assay and selectivity determination.
# [5] = tested on: RPE cells expressing wild-type PLK1; assay type: cell-based; conditions: read-out: growth inhibition, RPE cells expressing wild-type PLK1
# PLK1 PBD = PLK1 PBD (Homo sapiens, UniProt P53350); assay: Fluorescence polarization competitive binding assay, PLK1 PBD
# Sequence of PLK1 PBD (P53350 367-603 limits assumed): as above
# Experimental: (§3) According to the assay, binding of a fluorescent tracer peptide to a protein increased polarization of the emitted fluorescence. […] The ability of test molecules to bind to the PBD was quantitated by a reduction in mP values that occurred as the tracer was displaced from the PBD, and plotted to calculate as an IC50 value.
# as §2
# [6] = tested on: RPE cells expressing PLK1 C67V mutant; assay type: cell-based; conditions: for sensitivity of RPE cells to FLIPs, in words: FIG. 8
# PC3 cells = assay: Cell cycle analysis of serum-starved PC3 cells; assay type: cell-based; conditions: 200 μM, 24 hours, PC3 synchronized by serum starvation; mock 19.9%
# Experimental: To examine the cellular phenotype of PLK1 inhibition through the Polo-box domain, PC3 cells synchronized in G1 through serum starvation were treated with Compound No. 16. Cells were synchronized by serum starvation for 24 hours prior to treatment. Untreated cells were serum starved and then released into drug-free media for 24 hours (left panel) as control. Sample cells were serum starved and then treated with 200 μM Compound No. 16 for 24 hours (right panel).
# HeLa cells = assay: MTT cell viability assay, HeLa; assay type: cell-based; conditions: no delivery agent
# Experimental: (§4) Accordingly, cell viability was measured using an MTT assay to determine the anti-proliferative activity for Compounds No. 15, 16, 17, and 18 with regard to three different cell types (HeLa, PC-3, and A549). The cells utilized were chosen due to reported synthetic lethal interactions with PLK1 inhibition
# A549 cells = assay: MTT cell viability assay, A549; assay type: cell-based; conditions: A549, Kras mutant lung cancer, no delivery agent
# Experimental: as §4
# PC-3 cells = assay: MTT cell viability assay, PC-3; assay type: cell-based; conditions: PC-3, PTEN deficient prostate cancer, no delivery agent
# Experimental: as §4
# [7] = target: polo-box domain (PBD) of polo-like kinase 1 (PLK1) (UniProt P53350); assay: fluorescence polarization competition, displacement of tracer peptide from PLK1 PBD
# [8] = target: T2, polo-box domain (PBD) of polo-like …; assay: fluorescence polarization competition, displacement of tracer peptide from PLK3 PBD
# Experimental: as §3, with “IC₅₀” for “IC50”
# as §1, §2
# [9] = target: polo-like kinase 1 (PLK1), wild type, in cells (UniProt P53350 2-603, limits assumed); assay: cell-based or functional assay
# Sequence of polo-like kinase 1 (PLK1), wild type, in cells (P53350 2-603 limits assumed): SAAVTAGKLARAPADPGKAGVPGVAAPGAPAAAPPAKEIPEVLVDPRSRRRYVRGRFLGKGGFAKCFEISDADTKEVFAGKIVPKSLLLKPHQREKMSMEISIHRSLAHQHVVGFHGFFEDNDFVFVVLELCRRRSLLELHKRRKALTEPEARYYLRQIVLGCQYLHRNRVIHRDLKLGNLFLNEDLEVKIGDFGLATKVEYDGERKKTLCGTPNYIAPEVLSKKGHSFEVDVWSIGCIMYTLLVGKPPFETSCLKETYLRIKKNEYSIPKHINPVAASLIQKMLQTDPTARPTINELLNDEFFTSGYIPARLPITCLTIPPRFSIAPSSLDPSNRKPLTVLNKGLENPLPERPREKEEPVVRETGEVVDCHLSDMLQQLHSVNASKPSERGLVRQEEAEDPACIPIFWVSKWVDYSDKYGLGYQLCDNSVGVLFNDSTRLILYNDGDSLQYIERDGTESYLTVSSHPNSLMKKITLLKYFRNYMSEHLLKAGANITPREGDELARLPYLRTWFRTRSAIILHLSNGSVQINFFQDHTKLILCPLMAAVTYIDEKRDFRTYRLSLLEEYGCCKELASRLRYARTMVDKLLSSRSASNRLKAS
# [10] = target: polo-box domain (PBD) of polo-like kinase 1 (PLK1) (UniProt P53350); assay: from FP IC50s; PLK1 PBD against PLK3 PBD
# [11] = target: polo-box domain (PBD) of polo-like kinase 3 (PLK3) (UniProt Q9H4B4); assay: fluorescence polarization competition, displacement of tracer peptide from PLK3 PBD
# [12] = target: T2, polo-box domain (PBD) of polo-like …; assay: fluorescence polarization titration of tracer with PLK3 PBD
# Experimental: as §3, with “IC₅₀” for “IC50”
# as §1
# [13] = target: T3, polo-box domain (PBD) of polo-like kinase 1 (PLK1) (UniProt P53350 367-603, limits assumed); assay: fluorescence polarization competition on PLK1 PBD
# T3 construct: domain: polo-box domain (PBD); the background speaks of the four known human PLKs and the residue numbers (L491) fit human PLK1; also called PLK1 PBD; PBD of PLK1
# T3 sequence (P53350 367-603 limits assumed): as the sequence (P53350 367-603 limits assumed) above
# [14] = target: T3, polo-box domain (PBD) of polo-like …; assay: fluorescence polarization competition, displacement of tracer peptide from PLK1 PBD
# Description: as §3, with “IC₅₀” for “IC50”
molecule,measurement,setting,value
GPLATS[pT]PNGL (SEQ ID NO: 8),Selectivity Index,[1],2860
same,fold reduction of affinity against the PLK3 consensus peptide (SEQ ID NO: 7),[2],3 fold
same,fold reduction of affinity against the PLK3 consensus peptide (SEQ ID NO: 7),[3],2 fold
CCCCCCCCCc1ccc(C(=O)N[C@@H](CO)C(=O)N[C@H](C(=O)N[C@@H](C)C(=O)N[C@H](C(N)=O)[C@@H](C)CC)[C@@H](C)OP(=O)(O)O)cc1 [Compound 18] (X1-S[pT]AI-NH2; N-terminus assumed),BubR1 phosphorylation (anti-BubR1 immunoblot),[4],inhibited the BubR1 phosphorylation
same,mitotic block (anti-pHH3 immunoblot),[4],blocked the cells at mitosis
CCCCCCCCc1ccc(C(=O)N[C@@H](CO)C(=O)N[C@H](C(=O)N2CCC[C@H]2C(=O)N[C@@H](CC(C)C)C(=O)O)[C@@H](C)OP(=O)(O)O)cc1 [Compound 16] ({Benzoyl(4-octyl)}-S[pT]PL-OH; C-terminus assumed),fold reduction of PLK3 PBD binding relative to parent compound,PLK3 PBD,3-4 fold
same,IC50,"PLK3 PBD; competition with fluorescent tracer peptide, read-out: PLK3 PBD FP IC50",620 ± 72.5 µM
same,IC50,[5],158 µM
same,fold reduction of PLK1 PBD binding relative to parent compound,PLK1 PBD,3-4 fold
same,IC50,"[6]; C67V mutant PLK1, read-out: growth inhibition, RPE cells expressing PLK1 C67V mutant",86.8 µM
same,"sensitivity of RPE cells to FLIPs, in words",[6],sensitive
same,accumulation in G2/M,PC3 cells,53%
CCCCCCCCc1ccc(C(=O)N[C@@H](CO)C(=O)N[C@H](C(=O)N[C@@H](C)C(=O)N[C@H](C(=O)O)[C@@H](C)CC)[C@@H](C)OP(=O)(O)O)cc1 [Compound 15] ({Benzoyl(4-octyl)}-S[pT]AI-OH; C-terminus assumed),IC50,HeLa cells,128 µM
same,IC50,A549 cells,79.5 µM
same,IC50,PC-3 cells,55.7 µM
same,"sensitivity of RPE cells to FLIPs, in words",[6],sensitive
B1,IC50,[7],0.17 µM
same,IC50,[8],> 600 µM
same,Selectivity Index,[1],> 17000
B2,IC50,[7],1.2 µM
same,MTT IC50 [µM] A549,[9],160 µM
same,MTT IC50 [µM] HeLa,[9],142 µM
same,MTT IC50 [µM] PC-3,[9],103 µM
same,Selectivity Index,[10],2580
same,fold weaker affinity against Compound No. 15,[2],3 to 4 fold
same,fold weaker affinity against Compound No. 15,[3],3 to 4 fold
B3,IC50,[7],1.49 µM
same,MTT IC50 [µM] HeLa,[9],38.9 µM
same,MTT IC50 [µM] PC-3,[9],41.5 µM
same,IC50,[11],117 µM
same,Selectivity Index,[10],79
B4,IC50,[7],1.23 µM
same,MTT IC50 [µM] HeLa,[9],38.2 µM
same,MTT IC50 [µM] PC-3,[9],27 µM
same,IC50,[11],95.9 µM
same,Selectivity Index,[10],78
B5,Kd,[12],0.0272 µM
B6,fold increase of activity against Compound #8,[13],> 2 fold
same,IC50,[14],5.4 µM
